Source: doi:10.1101/2021.12.20.473401

Target: SARS-CoV spike glycoprotein (S) (SARS-CoV) (UniProt P59594)
Experiment: SPR

VHH-72
Kd: 6.52 nM
